The text below walks through data of patent EP4585618A1 (Jiangsu Hengrui Pharmaceuticals Co., Ltd., dated 2025).

Residue numbers refer to the chain shown, from its start.

The target of assay [1] is T1, His-tagged ILT4 protein extracellular domain: ILT4-His (human, UniProt Q8N423 22-460).
T1 construct: Expressed in 293 cells; also called human ILT4-His protein
The experiment in a line: screening of chimeric antibodies (ILT4 protein binding, cell binding, ILT4/HLA-G blocking).

The target of assay [2] is T1, His-tagged ILT4 protein extracellular …. Description: SPR (Biacore), antibody captured on Protein A chip, ILT4-His as analyte, 1:1 model. In general terms: Surface plasmon resonance follows binding to a sensor surface in real time, without labels.
Assay [3] has the same target. Description: ELISA, coated ILT4-His 1 µg/mL; Assay 2.

T1 sequence (Q8N423 other isoform, or with tags, fused parts or gaps limits assumed): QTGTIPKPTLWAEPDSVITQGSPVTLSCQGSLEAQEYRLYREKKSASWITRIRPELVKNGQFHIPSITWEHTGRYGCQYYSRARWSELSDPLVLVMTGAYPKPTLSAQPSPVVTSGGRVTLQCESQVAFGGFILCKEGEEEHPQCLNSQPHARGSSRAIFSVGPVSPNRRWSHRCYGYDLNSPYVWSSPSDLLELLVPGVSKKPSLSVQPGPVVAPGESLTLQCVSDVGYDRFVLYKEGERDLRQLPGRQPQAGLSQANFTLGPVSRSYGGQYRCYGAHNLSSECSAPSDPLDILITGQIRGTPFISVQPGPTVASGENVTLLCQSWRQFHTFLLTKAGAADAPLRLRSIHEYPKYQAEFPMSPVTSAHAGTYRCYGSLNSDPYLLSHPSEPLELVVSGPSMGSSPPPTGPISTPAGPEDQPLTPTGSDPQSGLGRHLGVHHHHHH

B1: chimeric antibody ChP1-D10 (antibody, human IgG4 S228P, kappa, F234A L235A, V domains shown)
VH: QVQLKQSGPGLVQPSQSLSITCTVSGFSLTTYGVHWVRQSPGKGLEWLGVIWSGGNTDSNAAFISRLSISKDNSKSQVFFKMNNLQADDTAIYYCARYSYAMDYWGQGTSVTVSS
VL: DIVMTQSHKFMSTSVGDRVSITCKASQDVSNGVAWYQQKPGQSPKVLIYAASYRYTGVPDRFTGSGSGTDFTFTIGSVQAEDLALYYCQQHYSTPFTFGSGTMLEIKR
notes: Murine variable regions with hIgG4(LALA) and CL constant regions; also called M P1-D10
With B1, the binding result in assay [1] is given as “binds”.

B2: humanized antibody huP1-G7 (antibody, human IgG4 S228P, kappa, F234A L235A, V domains shown)
VH: EVQLQESGPGLVKPSQTLSLTCTVSGYSITSGYYWNWIRQHPGKGLEWIGYISYDGGNNYNPFLKNRVTISRDTSKNQFSLKLSSVTAADTAVYYCAREGGSSWEYYGMDYWGQGTTVTVSS
VL: DIQMTQSPSSLSASVGDRVTITCRASENIYRNLAWYQQKPGKAPKLLLYAATNLADGVPSRFSGSGSGTDFTLTISSLQPEDFATYYCQQFWGSPYTFGGGTKVEIKR
notes: Full chains; also called P1-G7H1L1
In the case of B2, in assay [2], binding was characterised by a dissociation constant (Kd) of 0.158 nM, the koff was 7.2e-05 s⁻¹ and the on-rate constant (kon) turned out to be 457000 M⁻¹ s⁻¹.

B3: chimeric antibody ChP1-B4 (antibody, human IgG4 S228P, kappa, F234A L235A, V domains shown)
VH: QVQLKQSGPGLVQPSQSLSITCTVSSFSLTNYGVHWVRQSPGKGLEWLGVIWTGGSTDYNAAFISRLSIIRDNSKSQVFFKMNSLQADDTAMYYCAITTVVTAMDYWGQGTSVTVSS
VL: DIVMTQSHKFMSTSVGDRVSITCKASQDVNIAVVWYQQKPGQSPKLLIYAASYRYTGVPDRFTGSGSGTDFTFTISSVQAEDLAVYYCQQHYSSPYTFGGGTKLEIKR
notes: Murine variable regions with hIgG4(LALA) and CL constant regions; also called M P1-B4
With B3, in assay [1], the binding result is given as “binds”.

B4: chimeric antibody ChP2-F4 (antibody, human IgG4 S228P, kappa, F234A L235A, V domains shown)
VH: EVQLVESGGGLVKPGGSLKLSCAASGFTFSDYGMHWVRQAPEKGLEWVAYISSGSRIIYYADTVKGRFTISRDNAKNTLFLQMTSLRSEDTAMYSCARFYNYAHYTMDYWGQGTSVTVSS
VL: B3 VL with N30S, I31T, V34A, A50S, A84T, V85L, Q90H, S94T, Y96P
notes: Murine variable regions with hIgG4(LALA) and CL constant regions; also called M P2-F4
Regarding B4, in assay [1], the binding result was “binds”.

B5: chimeric antibody ChP1-B9 (antibody, human IgG4 S228P, kappa, F234A L235A, V domains shown)
VH: QVQLKQSGPGLVQPSQSLSITCTVSGFSLTSYGVHWVRQSPGKGLEWLGVIWSGGNTDYNAAFMSRLRINKDNSKSQVFFKMNSLQGSDTAIYYCATPYDVVPFAYWGQGTLVTVSS
VL: B3 VL with V34A, Q42L, A50S, D60G, Q79K, S94I, Y96F, G100A
notes: Murine variable regions with hIgG4(LALA) and CL constant regions; also called M P1-B9
For B5, in assay [1], the binding result is recorded as “binds”.

B6: chimeric antibody ChP2-B3 (antibody, human IgG4 S228P, kappa, F234A L235A, V domains shown)
VH: QVQLKQSGPGLVQPSQSLSITCTVSGFSLTNYGVHWFRQSPGKGLEWLGMIWSGGNTDYNAAFTSRLIITKDNSKSQVFFKMNSMQADDTAIYYCARGDYGSSSAYWGQGTLVTVSS
VL: B3 VL with N30S, V34A, A50S, S94N, P95T, Y96L, G100A
notes: Murine variable regions with hIgG4(LALA) and CL constant regions; also called M P2-B3
With B6, in assay [1], the binding result is given as “binds”.

B7: chimeric antibody ChP2-C10 (antibody, human IgG4 S228P, kappa, F234A L235A, V domains shown)
VH: QVQLQQPGAELVKPGASVKLSCKASGYTFTSYWMHWVKQRPGQGLEWIGVIHPNSDTTNYNEKFKNKATLTVDKSSSTAYMQLSSLTSEDSAVYYCATRYDYAYYAMDYWGQGTSVTVSS
VL: B3 VL with N30T, I31T, V34A, A50S, Y87H, S94T, P95S, Y96P, K103M
notes: Murine variable regions with hIgG4(LALA) and CL constant regions; also called M P2-C10
Regarding B7, the binding result in assay [1] is reported as “binds”.

B8: chimeric antibody ChP2-E8 (antibody, human IgG4 S228P, kappa, F234A L235A, V domains shown)
VH: EVQLLESGGGLVKPGGSLKLSCAASGFTFSDYGIHWVRQAPEKGLEWVAYISSGSSIINYADTVKGRFTISRDNAKNTLLLQMTSLRSEDTAMYYCARGPNYYGSSYLLVYWGQGTLVTVSS
VL: B3 VL with V34A, K39R, A50S, S93N, S94I, Y96W
notes: Murine variable regions with hIgG4(LALA) and CL constant regions; also called M P2-E8
As for B8, the binding result in assay [1] is “binds”.

B9: chimeric antibody ChP2-G4 (antibody, human IgG4 S228P, kappa, F234A L235A, V domains shown)
VH: EVQLQQSGPELVKPGASVKMSCKASGYTFTDYNMHWVKQSHGKSLEWIGYINPNNGGTTYNQKFKGKATLTVNKSSSTAYMELRSLTSEDSAVYYCASSEYYGSTFLFAYWGQGTLVTVSS
VL: B3 VL with S20G, N30S, V34A, A50S, V85A, S94T, Y96W
notes: Murine variable regions with hIgG4(LALA) and CL constant regions; also called M P2-G4
In assay [3], B9 had an EC50 of 0.0621 µg/mL and a Top of 1.83 absorbance at 450 nm.

B10: chimeric antibody ChP2-E7 (antibody, human IgG4 S228P, kappa, F234A L235A, V domains shown)
VH: QVQLQQPGTELVKPGASVKLSCKASGYTFTSYWMHWVKQSPGQGLEWIGNINPSNGGPNYNENFKTKATLTVDKSSSTAYMQLNSLTSEDSAVYYCAGGDYYGGSYLFAYWGQGTLVTVSS
VL: B3 VL with I2T, I21V, V34A, A50S, A51S, G68E, S93T, S94F
notes: Murine variable regions with hIgG4(LALA) and CL constant regions; also called M P2-E7
In assay [3], B10 yielded an EC50 of 0.0729 µg/mL and a Top of 2 absorbance at 450 nm.

B11: chimeric antibody ChP2-C4 (antibody, human IgG4 S228P, kappa, F234A L235A, V domains shown)
VH: QVQLKESGPGLVAPSQSLSITCTVSGFSLSTYAIGWVRQPPGKGLEWLGVIWTGGGTSYNSALKSRLSISKDNSKSQVFLKMNSLQTDDTARYYCARGDYGPFAYWGQGTLVTVSS
VL: B3 VL with V15L, T22S, N30S, V34A, P40A, A50S, Y55H, S94T, Y96F, G100S
notes: Murine variable regions with hIgG4(LALA) and CL constant regions; also called M P2-C4
B11: in assay [1], the binding result was “binds”.

One may read the Kd as the concentration at which binding is half-saturated. Lower therefore signals tighter binding. In general, koff refers to the rate constant with which the complex falls apart. A high value points to fast dissociation. For orientation: kon means the rate constant with which the complex forms. Higher therefore signals fast association. What is called EC50 is the concentration giving half of the maximal effect. A high value points to weaker potency.
